The test concerns SKOV3-Luc cells. Kind of test: SKOV3 xenograft in NSG mice. The settings on record: for tumor inhibition / protection, SKOV3 xenograft: 1 × 10^6 SKOV3-Luc s.c., a week later 3 × 10^6 SAR-T i.v.; for survival, SKOV3 xenograft: mouse, in vivo.

Numbering of substitutions follows the chain as printed.

B1: 10315 (protein)
chain: MALPVTALLLPLALLLHAARPDIQMTQSPSSLSASVGDRVTITCKSSQSLLYSSNQKNYLAWFQQKPGKAPKLLIYWASTRESGVPSRFSGSGSGTDFTLTISSLQPEDFATYFCHQYLSSYTFGQGTKVEIKRLEDLKNVFPPEVAVFEPSEAEISHTQKATLVCLATGFYPDHVELSWWVNGKEVHSGVCTDPQPLKEQPALNDSRYCLSSRLRVSATFWQNPRNHFRCQVQFYGLSENDEWTQDRAKPVTQIVSAEAWGRADCGFTSESYQQGVLSATILYEILLGKATLYAVLVSALVLMAMVKRKDSRGRAKRSGSGATNFSLLKQAGDVEENPGPTSMDWIWRILFLVGAATGAHSFEEVQLVESGGGLVQPGGSLRLSCAASGYTFTSYWLHWVRQAPGKGLEWVGYIRPSTGYTEYNQKFKDRFTISADTSKNTAYLQMNSLRAEDTAVYYCARSRWLLDYWGQGTLVTVSSTRIQNPDPAVYQLRDSKSSDKSVCLFTDFDSQTNVSQSKDSDVYITDKCVLDMRSMDFKSNSAVAWSNKSDFACANAFNNSIIPEDTFFPSPESSCDVKLVEKSFETDTNLNFQNLSVIGFRILLLKVAGFNLLMTLRLWSS
modifications: Synthetic Polynucloetide
In the case of B1, the “tumor inhibition / protection, SKOV3 xenograft” value (“tumor inhibition / protection” for short) is given as “tumor inhibition” and the “survival, SKOV3 xenograft” value is reported as “improvement in survival”.

B2: 10384 (protein)
chain: MALPVTALLLPLALLLHAARPDIQMTQSPSSLSASVGDRVTITCKSSQSVLYSSNQKNYLAWFQQKPGKAPKLLIYWASTRESGVPSRFSGSGSGTDFTLTISSLQPEDFATYFCHQYLSSYTFGQGTKVEIKRLEDLKNVFPPEVAVFEPSEAEISHTQKATLVCLATGFYPDHVELSWWVNGKEVHSGVCTDPQPLKEQPALNDSRYCLSSRLRVSATFWQNPRNHFRCQVQFYGLSENDEWTQDRAKPVTQIVSAEAWGRADCGFTSESYQQGVLSATILYEILLGKATLYAVLVSALVLMAMVKRKDSRGRAKRSGSGATNFSLLKQAGDVEENPGPTSMDWIWRILFLVGAATGAHSFEEVQLVESGGGLVQPGGSLRLSCAASGFTFTTYWMHWVRQAPGKGLEWVGYIRPSTGYTEYNQKFKDRFTISADTSKNTAYLQMNSLRAEDTAVYYCARSRWLLDYWGQGTLVTVSTRIQNPDPAVYQLRDSKSSDKSVCLFTDFDSQTNVSQSKDSDVYITDKCVLDMRSMDFKSNSAVAWSNKSDFACANAFNNSIIPEDTFFPSPESSCDVKLVEKSFETDTNLNFQNLSVIGFRILLLKVAGFNLLMTLRLWSS
modifications: Synthetic Polynucloetide
As to B2, the “tumor inhibition / protection” value is listed as “tumor inhibition” and the “survival, SKOV3 xenograft” value is “improvement in survival”.

B3: 10587 (protein)
chain: MALPVTALLLPLALLLHAARPEVQLVESGGGLVQPGGSLRLSCAASGFTFSDYFMSWVRQAPGKGLEWVATISNGGTYTYYPDSVKGRFTISRDNSKNTLYLQMNSLRAEDTAVYYCARFDGYIFDYWGQGTLVTVSSGGGGSGGGGSGGGGSDIQMTQSPSSLSASVGDRVTITCRASQDISSYLNWYQQKPGKAPKLLIYYTSRLHSGVPSRFSGSGSGTDFTLTISSLQPEDFATYYCQQGNTLPYTFGQGTKVEIKRTREQKLISEEDLAKPTTTPAPRPPTPAPTIASQPLSLRPEACRPAAGGAVHTRGLDFACDIYIWAPLAGTCGVLLLSLVITLYCKRGRKKLLYIFKQPFMRPVQTTQEEDGCSCRFPEEEEGGCELRVKFSRSADAPAYQQGQNQLYNELNLGRREEYDVLDKRRGRDPEMGGKPRRKNPQEGLYNELQKDKMAEAYSEIGMKGERRRGKGHDGLYQGLSTATKDTYDALHMQALPPR
modifications: Synthetic Polynucloetide
Turning to B3, the “tumor inhibition / protection” value is “weak protection”.

B4: 10656 (protein)
chain: B3 chain with S184N, Y249W
modifications: Synthetic Polynucloetide
Turning to B4, the “tumor inhibition / protection” value is “weak protection”.

For the origin of these results see US20230212319A1, “NOVEL ANTIGEN BINDING DOMAINS AND SYNTHETIC ANTIGEN RECEPTORS INCORPORATING THE SAME” (University of Southern California, priority 2020, published 2023).
